According to the DeepSol protein solubility set:

test: soluble on expression in E. coli; label from the status in PepcDB or PDB records

Row | Sequence | soluble on expression in E. coli
1 | MGSDKIHHHHHHMMQTDQRILLVGTPSERLSRLCCIFEFLGEQIDIITIEKLSTCLQETRFRALVISIDNMSADALKLVASQYPWQPILLFGHVGELQVSNVLGHIEEPLNYPQLTELLHFCQVYGQVKRPQVPTSANQTKLFRSLVGRSDGIANVRHLISQVATSDATVLVLGQSGTGKEVVARNIHYLSERRDGPFIPVNCGAIPPELLESELFGHEKGSFTGAISSRKGRFELAEGGTLFLDEIGDMPLQMQVKLLRVLQERVFERVGGTKTINADVRVVAATHRDLETMISSNEFREDLYYRLNVFPIEMPALSERKDDVPLLLQELVSRVYNEGRGKVRFTQRAIESLKEHAWSGNVRELSNLVERLTILYPGGLVDVNDLPIKYRHIDVPEYSVELSEEQQERDALASIFTSEEPVEIPETRFPSELPPEGVNLKDLLAELEIDMIRQALEQQDNVVARAAEMLGIRRTTLVEKMRKYGMTKE | not soluble
2 | MGSDKIHHHHHHMMTTVKDSTPAARELYLDLLVRILLNTIYQDPAINPGVRPMVVEPFNPKTRAIGKDWPTQAHTMVGQARLENLRQLSQQVLDDGIVGDFIETGVWRGGCCILMRGVLAANQIHDRKVYVADSFAGLPAPNVELYPRDTGWDLHEFKELAVSLQTVKDNFSRYGLLDEQVVFVEGMFSDTLPSLSAGPFALLRLDGDLYESTIVALNSLYPKLSRGGVVIIDDRALDPCRRAVIDFRDKHGITAPMQEVDWTGSWWRKE | not soluble
3 | MGSDKIHHHHHHMNADEFVEAFNNAKDLTELELLAELGKSISDDLEGHEKGKVLGTLGNIYYALHRLKEAEEAYLEALNVYLKLSEEDEGFLPYVVGCLYNLGNLYQVSRKFAEAEKAYTDALKVLGDVRNDQRLAILTALGTMYAKLDMKEHAERCLVEAFEMAKVKGDARLLGTLLNNLAVVYQRGGRKREAAMLLKMALDALERVGEDLGIAAVLQNLLPYLDEDELRRVMERLESFGELPIDLKAKIAYFKARRAEEKGEDSAKHYMEAACLGFMAYRNFGFQSINFMHCLDKVIESDSELREDAVVLKKVILKYYYGSQKVEIDFDSRVGRMIKAVLEGDDIYEDGILEDTVRLIAEDLLKAGTKV | not soluble
4 | MGSDKIHHHHHHMNALPKLNQLRNLRAIIQHGNISAAAQMLHQTQSTLTRSIQELEKTLGVTLLDRGMNSTVLTKAGMMFEPRMNLILNELERAVDELRQIEKLSDGKIAFGCSHFPATSIVPDVIKKFQERHNSTRITIIEGQLSELLSSLRMGKLDFFIGVVSSDLMLNEFVEERLTSCSFSVVARKGHPLANSTSLAELQAAKWYIPAASHGYYSDLETVIFPNGVKSCGSVIFGDSSAIARKLVLNEDYLFVGPRPMFLAPHHKDLISIIPIKDKLPEGHYSLISPRNKKLTPAALNLVNEIRFAYFDFIKSHS | not soluble
5 | MGSDKIHHHHHHMNDLNVLVLEDEPFQRLVAVTALKKVVPGSILEAADGKEAVAILESCGHVDIAICDLQMSGMDGLAFLRHASLSGKVHSVILSSEVDPILRQATISMIECLGLNFLGDLGKPFSLERITALLTRYNARRQDLPRQIEVAELPSVADVVRGLDNGEFEAYYQPKVALDGGGLIGAEVLARWNHPHLGVLPPSHFLYVMETYNLVDKLFWQLFSQGLATRRKLAQLGQPINLAFNVHPSQLGSRALAENISALLTEFHLPPSSVMFEITETGLISAPASSLENLVRLRIMGCGLAMDDFGAGYSSLDRLCEFPFSQIKLDRTFVQKMKTQPRSCAVISSVVALAQALGISLVVEGVESDEQRVRLIELGCSIAQGYLFARPMPEQHFLDYCSGS | not soluble
6 | MGSDKIHHHHHHMNDLPLADLDAFATIARLRNFRAAGKLRGVSASSLSEAMRRLEARVGVRLLNRTTRSVTLTDAGARLLERLSPTLADIELALDDINQFRERPFGRLRLNVPGIVARCVLPPVVTGFLAAYPDILLEVTVNDALIDVLAEGCDAGIRYEEALHQDMIAVPIGPRRQRYVCVAAPSYLEQYGRPEHPRDLIHHRSILHRFNSGRVNEWHFEREGEAINVSPPPRLIAETVDLELAAVRAGLGMMGTFEDFVIEDLNAGRLERVLTDWEDEFSGPFLYYHSRRHMPVPLRVFVDYIRQHGDPG | not soluble
7 | MGSDKIHHHHHHMNDTPPPPSCARCSAVWQKSGTTNCWSNPDNRPGRPADCPSSAHGDIVASSFDEYRGESDDARLARVAARVEGLCYRKMTGSDAVVARWTRVEDTIALAKLMGWSKVGIATCIGLLDETRQLATILEAQGLEPVSVCCKAGSIDKLELGLDESDKVRPGTFEPACNPVAQAEVLNRCGTHMNIIVGLCVGHDMLFTKHSAAPVTTLVCKDRVTGHNPVAVLYGQNFYFKRLQKMPIDIPEGEE | not soluble
